Test results taken from patent publication US20030175270.

Biological target: JAK2 immunoprecipitated from BMMC lysates (tyrosine-phosphorylated), Q62120
Sequence (Q62120 whole entry): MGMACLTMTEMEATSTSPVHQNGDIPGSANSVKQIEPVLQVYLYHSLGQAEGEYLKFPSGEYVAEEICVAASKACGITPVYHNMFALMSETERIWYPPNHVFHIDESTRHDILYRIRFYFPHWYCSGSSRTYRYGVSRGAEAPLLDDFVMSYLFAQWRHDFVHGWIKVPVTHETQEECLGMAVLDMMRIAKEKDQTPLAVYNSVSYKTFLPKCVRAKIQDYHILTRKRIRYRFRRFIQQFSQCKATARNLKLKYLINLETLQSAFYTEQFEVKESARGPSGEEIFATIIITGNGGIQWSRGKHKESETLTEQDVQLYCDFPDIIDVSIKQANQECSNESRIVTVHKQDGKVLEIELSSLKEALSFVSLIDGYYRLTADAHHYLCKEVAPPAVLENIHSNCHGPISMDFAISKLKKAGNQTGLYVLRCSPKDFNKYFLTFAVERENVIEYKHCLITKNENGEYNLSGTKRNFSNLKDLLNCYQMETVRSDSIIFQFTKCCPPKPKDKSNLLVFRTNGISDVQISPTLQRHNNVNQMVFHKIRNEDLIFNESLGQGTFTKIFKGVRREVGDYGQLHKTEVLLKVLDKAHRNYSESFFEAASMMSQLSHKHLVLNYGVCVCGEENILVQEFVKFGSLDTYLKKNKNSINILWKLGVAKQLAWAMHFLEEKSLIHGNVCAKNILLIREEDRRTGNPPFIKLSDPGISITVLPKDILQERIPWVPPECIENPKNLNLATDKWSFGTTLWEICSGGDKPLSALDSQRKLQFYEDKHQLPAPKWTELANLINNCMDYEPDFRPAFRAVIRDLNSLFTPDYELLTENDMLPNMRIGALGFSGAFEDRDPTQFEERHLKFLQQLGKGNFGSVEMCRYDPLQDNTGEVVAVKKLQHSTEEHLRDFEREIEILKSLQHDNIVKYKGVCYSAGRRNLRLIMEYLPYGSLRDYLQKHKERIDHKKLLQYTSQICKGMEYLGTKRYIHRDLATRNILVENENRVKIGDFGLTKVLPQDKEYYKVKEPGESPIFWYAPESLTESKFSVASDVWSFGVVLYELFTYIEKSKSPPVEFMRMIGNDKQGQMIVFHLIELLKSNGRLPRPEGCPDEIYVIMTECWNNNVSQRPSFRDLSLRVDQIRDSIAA

Row | Protein | tyrosine dephosphorylation in vitro (phosphatase assay)
1 | human non-receptor tyrosine PTPase TC-PTP (protein) MPTTIEREFEELDTQRRWQPLYLEIRNESHDYPHRVAKFPENRNRNRYRDVSPYDHSRVKLQNAENDYINASLVDIEEAQRSYILTQGPLPNTCCHFWLMVWQQKTKAVVMLNRIVEKESVKCAQYWPTDDQEMLFKETGFSVKLLSEDVKSYYTVHLLQLENINSGETRTISHFHYTTWPDFGVPESPASFLNFLFKVRESGSLNPDHGPAVIHCSAGIGRSGTFSLVDTCLVLMEKGDDINIKQVLLNMRKYRMGLIQTPDQLRFSYMAIIEGAKCIKGDSSIQKRWKELSKEDLSPAFDHSPNKIMTEKYNGNR | the human non-receptor tyrosine PTPase TC-PTP and the bacterial lambda PTPase did not dephosphorylate JAK2 in vitro
2 | bacterial lambda PTPase (protein) MRYYEKIDGSKYRNIWVVGDLHGCYTNLMNKLDTIGFDNKKDLLISVGDLVDRGAENVECLELITFPWFRAVRGNHEQMMIDGLSERGNVNHWLLNGGGWFFNLDYDKEILAKALAHKADELPLIIELVSKDKKYVICHADYPFDEYEFGKPVDHQQVIWNRERISNSQNGIVKEIKGADTFIFGHTPAVKPLKFANQMYIDTGAVFCGNLTLIQVQGEGA | the human non-receptor tyrosine PTPase TC-PTP and the bacterial lambda PTPase did not dephosphorylate JAK2 in vitro
